For experiment [1], the target named is T1, human KIR3DS1 (CD158e2) on cells (human, UniProt P43629 22-381).
T1 construct: Present on donor NK and T cells
Description: flow cytometry with AZ158-PE on healthy donor PBMC gated on CD3+ T lymphocytes. For orientation: In flow cytometry, cells or beads pass a laser one at a time.

The target in experiment [2] is T2, human KIR3DL1 (CD158e1) on cells (human, UniProt P43629 22-444).
T2 construct: Present on donor NK and T cells
Description: two colour immunofluorescence on polyclonal NK cell populations and clones. An excerpt:
mAbs were generated by immunizing 5 week old Balb C mice with polyclonal IL-2 activated NK population. […] The reactivity of AZ158 was further analyzed on NK cell populations and clones in combination with additional antibodies, including EB6 ([…], CD158a), GL183 (anti-p58.2/50.2, CD158b), PAX180 (anti-p50.3) and FES172 (anti-p50.3), as well as Z27 and Q66, and it was observed that AZ158 reacted with the same cell subset stained by the anti-KIR3DL1 and anti-KIR3DL2 mAbs. Similar results were also observed using a panel of NK cell clones expressing different HLA class I specific NK receptors.

The target in experiment [3] is T3, KIR3DL2 domain 1 construct (V5-tagged, CD24-GPI anchored) on HEK-293T/17 cells (human, UniProt P43630 139-238).
T3 construct: also called pcDNA3.1/KIR3DL2 domain 1; KIR3DL2 extracellular domain 1
T3 sequence: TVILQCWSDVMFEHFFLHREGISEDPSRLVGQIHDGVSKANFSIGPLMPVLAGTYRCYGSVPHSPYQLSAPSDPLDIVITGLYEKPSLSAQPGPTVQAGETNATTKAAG
Nature of the experiment: flow cytometry on transfected HEK-293T/17 cells, goat anti-human-PE detection. The protocol:
(§1) Transfections were performed using 5 μg of the different pcDNA3.1/KIR3DL2 domain 0, pcDNA3.1/KIR3DL2 domain 1 or pcDNA3.1/KIR3DL2 domain 2 constructs using Lipofectamine 2000 according to manufacturer instructions. To ensure DNA purity for transfection, Maxi-prep endotoxin free kit from Qiagen was used. The Lipofectamine/DNA ratio used was fixed at 2/1. Cells were harvested 48 hours after transfection for flow cytometry experiments.
(§2) Cells were harvested and stained in PBS 1×/BSA 0.2%/EDTA 2 mM buffer during 1H at 4° C. using 5 μg/ml of chiAZ158 antibody. After two washes in staining buffer, cells were stained for 30 min at 4° C. with anti-V5 antibody FITC (0.1 μl per well) and goat anti-human (H+L)-PE antibodies (1/200). After two washes, stainings were acquired on a BD FACS Canto II and analyzed using the FlowJo software.
(§3) Results are shown in FIGS. 7-10, with V5-FITC indicated on the y-axis and chAZ158-GAH-PE on the x-axis. […] No binding of the chiAZ158 antibody could be detected on KIR3DL2 domain 1 (FIG. 9) or domain 2 (FIG. 10). Therefore, it can be concluded from this flow cytometry experiment that the chAZ158 antibody binds to the KIR3DL2 extracellular domain 0 but not to domains 1 and 2.

The target of experiment [4] is T4, KIR3DL2 domain 2 construct (V5-tagged, CD24-GPI anchored) on HEK-293T/17 cells (human, UniProt P43630 239-340).
T4 construct: also called pcDNA3.1/KIR3DL2 domain 2; KIR3DL2 extracellular domain 2
T4 sequence (P43630 other isoform, or with tags, fused parts or gaps limits assumed): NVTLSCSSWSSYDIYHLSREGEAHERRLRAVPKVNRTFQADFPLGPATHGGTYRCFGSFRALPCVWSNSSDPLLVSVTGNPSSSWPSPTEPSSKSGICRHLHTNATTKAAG
Described as above. The protocol: as §1, §2, §3

Experiment [5] has as its target T5, KIR3DL1 recombinant protein (R&D systems) (Homo sapiens (Human), UniProt P43629 22-340).
T5 construct: Bought protein; also called KIR3DL1 chip; immobilized KIR3DL1
Description: SPR (Biacore T100), receptor immobilized on chip, antibody injected at 12 µg/ml. As to the method: The binding of chimeric AZ158 (“chAZ158”, see Example 3) to KIR3DL2 and KIR3DL1 recombinant proteins (R&D systems) was analyzed by Surface Plasmon Resonance (SPR) using a Biacore T100 apparatus. […] Antibody was injected at a constant concentration of 12 μg/ml over the KIR3DL2 and KIR3DL1 flow-cells. Background signals were subtracted online by co-injecting onto the reference flow cell (dextran alone). Sensorgrams are representative of three independent experiments.
On the technique in general: Surface plasmon resonance follows binding to a sensor surface in real time, without labels.

T5 sequence (P43629 22-340 limits assumed): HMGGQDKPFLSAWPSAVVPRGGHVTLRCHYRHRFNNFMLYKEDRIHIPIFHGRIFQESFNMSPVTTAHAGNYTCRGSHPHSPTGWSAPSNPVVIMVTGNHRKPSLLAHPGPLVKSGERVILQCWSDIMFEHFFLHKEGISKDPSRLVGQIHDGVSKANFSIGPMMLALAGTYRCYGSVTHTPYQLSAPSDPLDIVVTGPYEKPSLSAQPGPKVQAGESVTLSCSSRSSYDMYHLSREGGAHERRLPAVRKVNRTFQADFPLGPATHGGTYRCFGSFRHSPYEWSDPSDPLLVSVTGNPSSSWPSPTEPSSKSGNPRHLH
T2 sequence (P43629 22-444 limits assumed): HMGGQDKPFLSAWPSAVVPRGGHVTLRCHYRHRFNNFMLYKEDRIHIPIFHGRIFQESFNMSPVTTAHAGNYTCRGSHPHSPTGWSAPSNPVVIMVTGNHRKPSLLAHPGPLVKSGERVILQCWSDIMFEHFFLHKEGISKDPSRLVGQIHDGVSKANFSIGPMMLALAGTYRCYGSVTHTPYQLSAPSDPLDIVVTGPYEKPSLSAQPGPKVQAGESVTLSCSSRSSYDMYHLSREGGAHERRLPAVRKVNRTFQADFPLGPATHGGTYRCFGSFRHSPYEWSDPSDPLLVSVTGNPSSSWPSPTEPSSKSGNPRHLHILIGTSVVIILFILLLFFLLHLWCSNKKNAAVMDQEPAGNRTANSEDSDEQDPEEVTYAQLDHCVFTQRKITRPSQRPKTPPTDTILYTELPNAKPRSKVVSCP
T1 sequence (P43629 other isoform, or with tags, fused parts or gaps limits assumed): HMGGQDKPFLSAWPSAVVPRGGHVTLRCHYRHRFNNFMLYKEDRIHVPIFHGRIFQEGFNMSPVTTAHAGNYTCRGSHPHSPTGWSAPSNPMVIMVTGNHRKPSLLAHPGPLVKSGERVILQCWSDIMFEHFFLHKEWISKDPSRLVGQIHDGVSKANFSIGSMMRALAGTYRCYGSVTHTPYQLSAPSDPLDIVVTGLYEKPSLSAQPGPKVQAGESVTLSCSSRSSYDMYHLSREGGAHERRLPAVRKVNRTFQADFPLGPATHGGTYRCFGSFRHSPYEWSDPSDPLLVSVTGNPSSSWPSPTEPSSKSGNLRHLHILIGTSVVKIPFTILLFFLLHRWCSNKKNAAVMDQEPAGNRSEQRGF

B1: AZ158 (murine monoclonal antibody) (antibody, mouse IgG2b, V domains shown)
VH: QVQLKESGPGLVAPSQSLSITCTVSGFSLTSFGVHWVRQPPGKGLEWLGVIWAGGSTNYNSALMSRLSISKDNSKSQVFLKMNSLQNDDTAMYYCARGNSNHYVSSFYYFDYWGQGTTLTVSS
VL: DIQMTQSPSSLSASLGGKVTITCKASQDINKYIAWYQHKPGKGPRLLIHYTSTLQPGIPSRFSGSGSGRDYSFSISNLEPEDITTYYCLQYDNLWTFGGGTKLEIK
notes: also called mAb AZ158; AZ158-PE
As to B1, the binding result in experiment [1] and in experiment [2] was “binds” each time.

B2: chAZ158 (chimeric AZ158, human IgG1-kappa, with the MKV6-derived kappa chain) (antibody, V domains shown)
VH: QVQLKESGPGLVAPSQSLSITCTVSGFSLTSFGVHWVRQPPGKGLEWLGVIWAGGSTNYNSALMSRLSISKDNSKSQVFLKMNSLQNDDTAMYYCARGNSNHYVSSFYYFDYWGQGTTLTVSS
VL: DIQMTQSPSSLSASLGGKVTITCKASQDINKYIAWYQHKPGKGPRLLIHYTSTLQPGIPSRFSGSGSGRDYSFSISNLEPEDITTYYCLQYDNLWTFGGGTKLEIKR
notes: also called chiAZ158; AZ158 chimeric antibody
On to B2, for which the binding result is recorded as “no binding (tested: 5 µg/ml)” in experiment [3], “no binding (tested: 5 µg/ml)” in experiment [4] and “binds” in experiment [5].

For the origin of these results see patent US20160046713A1 (INNATE PHARMA, published 2016).
